PMC8208096

Target: wildtype human transient receptor potential ankyrin 1 channel subunit (hTRPA1_WT) (human) (UniProt O75762)
Assay: co-IP

normalized fold of enrichment (against HA-tagged WT) | Substance
0.62 fold | hTRPA1_27B splice variant, HA-tagged (natural protein)
0.71 fold | hTRPA1_27A splice variant, HA-tagged (natural protein)
